Test results reported in paper doi:10.1101/2022.01.28.478199.
“And” between values parts separate entries of the source, which are not always exact repeats. Equal values may be shown once.

Molecular target: Hsp78TR-6xHis (Hsp78 E216Q/E614Q Walker B mutant with a C-terminal 6x polyhistidine-tag) (S. cerevisiae) (UniProt P33416)
Assay: native gel or EMSA

stoichiometry N: 3 and 6
Substance: Hsp78TR-6xHis (Hsp78 E216Q/E614Q Walker B mutant with a C-terminal 6x polyhistidine-tag) (from UniProt P33416 45-811) (natural protein)
